One sequence from US20150033370 can be followed below.

In the series the test system is TALEN-AAVS1 (goat AAVS1 TALEN pair; left and right monomers not described separately) (synthetic construct). Kind of series: cell_activity. The note with it: cleavage/targeting efficiency in transfected goat fibroblasts; 6 of 8 puromycin-resistant clones correctly targeted with donor; half-sites highlighted only in ….

“TCCGGCTGTCTCCCTACCAGGGACACGGCAGGGCGGTGGTCAGCTCTCCTGGA (double strand) [goat AAVS1 TALEN target]” displayed an activity of 2%.
